Measured values: the supplement of paper PMC10567573

B1: MED27 (parent)
chain: YNENVYTEDGKLDIWSKSNYQVFQ

Variants of: B1
Experiment: protein stability index of a GFP-peptide fusion (GPS, HEK-293T) (PSI 1-6); higher = more stable
Settings: c terminus: a fixed tail appended
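Further: lentivirally expressed fusions sorted by FACS into six bins by GFP to DsRed ratio, PSI derived from sequencing read proportions per bin multiplied by bin number.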

**Q.** With YNENVWTEDGKLDIWSKSNYQVFQ as the variant, how does the protein stability index read?
**A.** 2.04

**Q.** With YNENVGTEDGKLDIWSKSNYQVFQ as the variant, how does the protein stability index read?
**A.** 2.57

**Q.** With YNENVTTEDGKLDIWSKSNYQVFQ as the variant, how does the protein stability index read?
**A.** 2.98

**Q.** Which protein stability index does the source give for YNENVVTEDGKLDIWSKSNYQVFQ here?
**A.** 3.02

**Q.** With YNENVHTEDGKLDIWSKSNYQVFQ as the variant, how does the protein stability index read?
**A.** 2.95

**Q.** Which protein stability index does the source give for YNENVDTEDGKLDIWSKSNYQVFQ here?
**A.** 3.3

**Q.** Which protein stability index does the source give for YNENVQTEDGKLDIWSKSNYQVFQ here?
**A.** 2.76

**Q.** For YNENVSTEDGKLDIWSKSNYQVFQ, which protein stability index is on record?
**A.** 3.26

**Q.** Which protein stability index does the source give for YNENVKTEDGKLDIWSKSNYQVFQ here?
**A.** 2.34

**Q.** With YNENVPTEDGKLDIWSKSNYQVFQ as the variant, how does the protein stability index read?
**A.** 2.68

**Q.** For YNENVITEDGKLDIWSKSNYQVFQ, which protein stability index is on record?
**A.** 2.43

**Q.** With YNENVCTEDGKLDIWSKSNYQVFQ as the variant, how does the protein stability index read?
**A.** 2.84

**Q.** For YNENVMTEDGKLDIWSKSNYQVFQ, which protein stability index is on record?
**A.** 2.17

**Q.** Which protein stability index does the source give for YNENVRTEDGKLDIWSKSNYQVFQ here?
**A.** 2.48

**Q.** With YNENVETEDGKLDIWSKSNYQVFQ as the variant, how does the protein stability index read?
**A.** 3.17

**Q.** For YNENVFTEDGKLDIWSKSNYQVFQ, which protein stability index is on record?
**A.** 2.55

**Q.** For YNENVNTEDGKLDIWSKSNYQVFQ, which protein stability index is on record?
**A.** 3

**Q.** For YNENVLTEDGKLDIWSKSNYQVFQ, which protein stability index is on record?
**A.** 2.38

**Q.** For YNENVATEDGKLDIWSKSNYQVFQ, which protein stability index is on record?
**A.** 2.62

**Q.** For GNENVYTEDGKLDIWSKSNYQVFQ, which protein stability index is on record?
**A.** 3.7

**Q.** Which protein stability index does the source give for LNENVYTEDGKLDIWSKSNYQVFQ here?
**A.** 3.2

**Q.** With NNENVYTEDGKLDIWSKSNYQVFQ as the variant, how does the protein stability index read?
**A.** 3.35

**Q.** Which protein stability index does the source give for DNENVYTEDGKLDIWSKSNYQVFQ here?
**A.** 3.38

**Q.** With CNENVYTEDGKLDIWSKSNYQVFQ as the variant, how does the protein stability index read?
**A.** 2.9

**Q.** For INENVYTEDGKLDIWSKSNYQVFQ, which protein stability index is on record?
**A.** 2.5

**Q.** For ENENVYTEDGKLDIWSKSNYQVFQ, which protein stability index is on record?
**A.** 4.04

**Q.** Which protein stability index does the source give for RNENVYTEDGKLDIWSKSNYQVFQ here?
**A.** 3.11

**Q.** With HNENVYTEDGKLDIWSKSNYQVFQ as the variant, how does the protein stability index read?
**A.** 3.23

**Q.** Which protein stability index does the source give for VNENVYTEDGKLDIWSKSNYQVFQ here?
**A.** 3.67

**Q.** Which protein stability index does the source give for WNENVYTEDGKLDIWSKSNYQVFQ here?
**A.** 2.93

**Q.** Which protein stability index does the source give for KNENVYTEDGKLDIWSKSNYQVFQ here?
**A.** 3.28

**Q.** With MNENVYTEDGKLDIWSKSNYQVFQ as the variant, how does the protein stability index read?
**A.** 3.52

**Q.** For QNENVYTEDGKLDIWSKSNYQVFQ, which protein stability index is on record?
**A.** 3.74

**Q.** Which protein stability index does the source give for TNENVYTEDGKLDIWSKSNYQVFQ here?
**A.** 3.4

**Q.** With SNENVYTEDGKLDIWSKSNYQVFQ as the variant, how does the protein stability index read?
**A.** 3.23

**Q.** With PNENVYTEDGKLDIWSKSNYQVFQ as the variant, how does the protein stability index read?
**A.** 3.52

**Q.** Which protein stability index does the source give for FNENVYTEDGKLDIWSKSNYQVFQ here?
**A.** 2.27

**Q.** For ANENVYTEDGKLDIWSKSNYQVFQ, which protein stability index is on record?
**A.** 2.86

**Q.** For YNENVYEEDGKLDIWSKSNYQVFQ, which protein stability index is on record?
**A.** 2.96

**Q.** Which protein stability index does the source give for YNENVYIEDGKLDIWSKSNYQVFQ here?
**A.** 1.72

**Q.** With YNENVYLEDGKLDIWSKSNYQVFQ as the variant, how does the protein stability index read?
**A.** 1.8

**Q.** With YNENVYFEDGKLDIWSKSNYQVFQ as the variant, how does the protein stability index read?
**A.** 2.13

**Q.** Which protein stability index does the source give for YNENVYDEDGKLDIWSKSNYQVFQ here?
**A.** 2.7

**Q.** With YNENVYMEDGKLDIWSKSNYQVFQ as the variant, how does the protein stability index read?
**A.** 1.75

**Q.** For YNENVYCEDGKLDIWSKSNYQVFQ, which protein stability index is on record?
**A.** 2.63

**Q.** Which protein stability index does the source give for YNENVYPEDGKLDIWSKSNYQVFQ here?
**A.** 2.21

**Q.** Which protein stability index does the source give for YNENVYAEDGKLDIWSKSNYQVFQ here?
**A.** 2.21

**Q.** With YNENVYNEDGKLDIWSKSNYQVFQ as the variant, how does the protein stability index read?
**A.** 2.14

**Q.** With YNENVYGEDGKLDIWSKSNYQVFQ as the variant, how does the protein stability index read?
**A.** 2.53

**Q.** With YNENVYHEDGKLDIWSKSNYQVFQ as the variant, how does the protein stability index read?
**A.** 2.11

**Q.** With YNENVYKEDGKLDIWSKSNYQVFQ as the variant, how does the protein stability index read?
**A.** 2.35

**Q.** Which protein stability index does the source give for YNENVYQEDGKLDIWSKSNYQVFQ here?
**A.** 2.48

**Q.** Which protein stability index does the source give for YPENVYTEDGKLDIWSKSNYQVFQ here?
**A.** 2.09

**Q.** Which protein stability index does the source give for YWENVYTEDGKLDIWSKSNYQVFQ here?
**A.** 1.69

**Q.** For YRENVYTEDGKLDIWSKSNYQVFQ, which protein stability index is on record?
**A.** 2.4

**Q.** For YCENVYTEDGKLDIWSKSNYQVFQ, which protein stability index is on record?
**A.** 2.47

**Q.** With YGENVYTEDGKLDIWSKSNYQVFQ as the variant, how does the protein stability index read?
**A.** 1.75

**Q.** With YYENVYTEDGKLDIWSKSNYQVFQ as the variant, how does the protein stability index read?
**A.** 2.1

**Q.** With YDENVYTEDGKLDIWSKSNYQVFQ as the variant, how does the protein stability index read?
**A.** 3.6

**Q.** Which protein stability index does the source give for YQENVYTEDGKLDIWSKSNYQVFQ here?
**A.** 2.33

**Q.** Which protein stability index does the source give for YKENVYTEDGKLDIWSKSNYQVFQ here?
**A.** 2.91

**Q.** For YHENVYTEDGKLDIWSKSNYQVFQ, which protein stability index is on record?
**A.** 1.75

**Q.** With YEENVYTEDGKLDIWSKSNYQVFQ as the variant, how does the protein stability index read?
**A.** 3.95

**Q.** Which protein stability index does the source give for YVENVYTEDGKLDIWSKSNYQVFQ here?
**A.** 3.18

**Q.** For YSENVYTEDGKLDIWSKSNYQVFQ, which protein stability index is on record?
**A.** 2.02

**Q.** For YFENVYTEDGKLDIWSKSNYQVFQ, which protein stability index is on record?
**A.** 2.26

**Q.** With YTENVYTEDGKLDIWSKSNYQVFQ as the variant, how does the protein stability index read?
**A.** 1.95

**Q.** Which protein stability index does the source give for YMENVYTEDGKLDIWSKSNYQVFQ here?
**A.** 2.01

**Q.** With YAENVYTEDGKLDIWSKSNYQVFQ as the variant, how does the protein stability index read?
**A.** 2.53

**Q.** With YLENVYTEDGKLDIWSKSNYQVFQ as the variant, how does the protein stability index read?
**A.** 1.68

**Q.** For YIENVYTEDGKLDIWSKSNYQVFQ, which protein stability index is on record?
**A.** 1.68

**Q.** For YNENAYTEDGKLDIWSKSNYQVFQ, which protein stability index is on record?
**A.** 2.47

**Q.** For YNENMYTEDGKLDIWSKSNYQVFQ, which protein stability index is on record?
**A.** 2.1

**Q.** For YNENPYTEDGKLDIWSKSNYQVFQ, which protein stability index is on record?
**A.** 2.35

**Q.** For YNENKYTEDGKLDIWSKSNYQVFQ, which protein stability index is on record?
**A.** 2.15

**Q.** With YNENQYTEDGKLDIWSKSNYQVFQ as the variant, how does the protein stability index read?
**A.** 3.06

**Q.** For YNENTYTEDGKLDIWSKSNYQVFQ, which protein stability index is on record?
**A.** 2.67

**Q.** For YNENEYTEDGKLDIWSKSNYQVFQ, which protein stability index is on record?
**A.** 3.28

**Q.** With YNENYYTEDGKLDIWSKSNYQVFQ as the variant, how does the protein stability index read?
**A.** 1.97

**Q.** With YNENDYTEDGKLDIWSKSNYQVFQ as the variant, how does the protein stability index read?
**A.** 3.26

**Q.** For YNENWYTEDGKLDIWSKSNYQVFQ, which protein stability index is on record?
**A.** 1.91

**Q.** For YNENNYTEDGKLDIWSKSNYQVFQ, which protein stability index is on record?
**A.** 3.01

**Q.** For YNENCYTEDGKLDIWSKSNYQVFQ, which protein stability index is on record?
**A.** 2.05

**Q.** For YNENHYTEDGKLDIWSKSNYQVFQ, which protein stability index is on record?
**A.** 2.95

**Q.** With YNENFYTEDGKLDIWSKSNYQVFQ as the variant, how does the protein stability index read?
**A.** 1.72

**Q.** With YNENLYTEDGKLDIWSKSNYQVFQ as the variant, how does the protein stability index read?
**A.** 2.21

**Q.** For YNENSYTEDGKLDIWSKSNYQVFQ, which protein stability index is on record?
**A.** 2.34

**Q.** Which protein stability index does the source give for YNENIYTEDGKLDIWSKSNYQVFQ here?
**A.** 2.73

**Q.** With YNENRYTEDGKLDIWSKSNYQVFQ as the variant, how does the protein stability index read?
**A.** 2.25

**Q.** Which protein stability index does the source give for YNENGYTEDGKLDIWSKSNYQVFQ here?
**A.** 2.71

**Q.** For YNEYVYTEDGKLDIWSKSNYQVFQ, which protein stability index is on record?
**A.** 1.47

**Q.** Which protein stability index does the source give for YNEIVYTEDGKLDIWSKSNYQVFQ here?
**A.** 2.04

**Q.** With YNEKVYTEDGKLDIWSKSNYQVFQ as the variant, how does the protein stability index read?
**A.** 1.8

**Q.** Which protein stability index does the source give for YNEDVYTEDGKLDIWSKSNYQVFQ here?
**A.** 2.21
